Measured values published in the RNAGym collection of RNA variant scans (doi:10.7554/elife.80360).

B1: Twister Ribozyme (parent)
chain: AACACUGCCAAUGCCGGUCCCAAGCCCGGAUAAAAGUGGAGGGGGCGG

Variants of: B1
Assay: self-cleavage, relative activity (ratio to wild type); higher = more cleavage; co-transcriptional

Variant	self-cleavage
A10C G16U	0.677
A4C G28A	0.12
A22C A23U	0.243
G17U A32G	0.345
G7U G28C	0.0665
A4U G7U	0.0685
A4U C46U	0.125
A30U G48U	1.09
A2U G38U	0.184
A2U G38C	0.252
G16A G42U	0.197
C20G G24C	0.123
C20U G24A	0.0805
A1G U12C	0.45
C9G A40C	0.102
C27G G43C	0.0881
A4G G28A	0.58
C25G G45U	0.145
U37A G39U	0.159
C5A C8U	0.335
G16U C19A	0.284

Variant	self-cleavage
G16U C19G	0.342
A32U G48A	0.942
A1U G39A	0.0588
G17C U31G	0.139
A2U C3G	0.113
A22C A33G	0.802
G17C G29C	0.0728
A2C C19A	0.0459
A35G G44C	0.821
C26A G29C	0.122
U18G U31C	0.106
C9U C19U	0.226
U31C G47A	0.926
G16C G44A	0.803
A2G C19G	0.121
G29U G43C	0.19
C9U U37G	0.419
C25G A32C	0.261
C8U C9U	0.0747
A2U G39C	0.18
A4G U31A	0.604

Variant	self-cleavage
C3A C19G	0.0471
C15U U18G	0.0578
A10C C15G	0.0331
A11U C46U	0.914
A2U C20G	0.0669
C14U G29C	1.09
A30G U31A	0.744
G17A A23G	0.0743
A23C G48U	0.181
A11G G44C	0.784
U18A G29U	0.389
G24C A34G	0.103
C19A U31G	0.334
C14U G48U	1.17
C5A G28C	0.229
G17C G47U	0.0863
G17C A30G	0.0984
C8U A22U	0.419
G17C G43U	0.0878
C25G G43C	0.124
A1U C9G	0.0577

Variant	self-cleavage
G42C G43A	0.139
U6A A10C	1.19
C3A U6G	0.121
G7A C27G	0.0632
G7A C20A	0.0724
C9U U18A	0.0726
A4C A11G	0.193
C19U C26A	0.116
U18A U31C	0.568
G29A G43U	0.326
A1G A34G	0.361
G16U G41U	0.35
A22G G47U	0.136
G41U G45A	0.596
A32C A33G	0.945
A22G C26U	0.101
C26G A32U	0.193
A11G A22U	0.66
A34C G39A	0.155
G17C C20U	0.0836
A35G A40C	0.142
